In patent publication US20240368668A1, “SUBSTRATES AND BIOMARKERS OF ADAMTS7” (The Broad Institute, Inc., priority 2021, published 2024) one finds logFC.mWT.over.Lux data, which are given here for 51 substances.

Square brackets hold non-standard residues; d marks the D form. Ends that are not written are not given here. deamidated = deamidated asparagine; Met(O) = CS(=O)CC[C@H](N)C(=O)O

This assay has as its target T1, mouse ADAMTS7 (Mus musculus, UniProt Q68SA9).
T1 construct: Full-length mouse Adamts7 1-1857 (Uniprot Q68SA9, WT or E373Q catalytic mutant); expressed in transfected cells; host or cells: Human Coronary Artery Smooth Muscle Cells (HCA-SMC, Lonza), adenovirus 50 MOI
T1 sequence (Q68SA9 221-1657): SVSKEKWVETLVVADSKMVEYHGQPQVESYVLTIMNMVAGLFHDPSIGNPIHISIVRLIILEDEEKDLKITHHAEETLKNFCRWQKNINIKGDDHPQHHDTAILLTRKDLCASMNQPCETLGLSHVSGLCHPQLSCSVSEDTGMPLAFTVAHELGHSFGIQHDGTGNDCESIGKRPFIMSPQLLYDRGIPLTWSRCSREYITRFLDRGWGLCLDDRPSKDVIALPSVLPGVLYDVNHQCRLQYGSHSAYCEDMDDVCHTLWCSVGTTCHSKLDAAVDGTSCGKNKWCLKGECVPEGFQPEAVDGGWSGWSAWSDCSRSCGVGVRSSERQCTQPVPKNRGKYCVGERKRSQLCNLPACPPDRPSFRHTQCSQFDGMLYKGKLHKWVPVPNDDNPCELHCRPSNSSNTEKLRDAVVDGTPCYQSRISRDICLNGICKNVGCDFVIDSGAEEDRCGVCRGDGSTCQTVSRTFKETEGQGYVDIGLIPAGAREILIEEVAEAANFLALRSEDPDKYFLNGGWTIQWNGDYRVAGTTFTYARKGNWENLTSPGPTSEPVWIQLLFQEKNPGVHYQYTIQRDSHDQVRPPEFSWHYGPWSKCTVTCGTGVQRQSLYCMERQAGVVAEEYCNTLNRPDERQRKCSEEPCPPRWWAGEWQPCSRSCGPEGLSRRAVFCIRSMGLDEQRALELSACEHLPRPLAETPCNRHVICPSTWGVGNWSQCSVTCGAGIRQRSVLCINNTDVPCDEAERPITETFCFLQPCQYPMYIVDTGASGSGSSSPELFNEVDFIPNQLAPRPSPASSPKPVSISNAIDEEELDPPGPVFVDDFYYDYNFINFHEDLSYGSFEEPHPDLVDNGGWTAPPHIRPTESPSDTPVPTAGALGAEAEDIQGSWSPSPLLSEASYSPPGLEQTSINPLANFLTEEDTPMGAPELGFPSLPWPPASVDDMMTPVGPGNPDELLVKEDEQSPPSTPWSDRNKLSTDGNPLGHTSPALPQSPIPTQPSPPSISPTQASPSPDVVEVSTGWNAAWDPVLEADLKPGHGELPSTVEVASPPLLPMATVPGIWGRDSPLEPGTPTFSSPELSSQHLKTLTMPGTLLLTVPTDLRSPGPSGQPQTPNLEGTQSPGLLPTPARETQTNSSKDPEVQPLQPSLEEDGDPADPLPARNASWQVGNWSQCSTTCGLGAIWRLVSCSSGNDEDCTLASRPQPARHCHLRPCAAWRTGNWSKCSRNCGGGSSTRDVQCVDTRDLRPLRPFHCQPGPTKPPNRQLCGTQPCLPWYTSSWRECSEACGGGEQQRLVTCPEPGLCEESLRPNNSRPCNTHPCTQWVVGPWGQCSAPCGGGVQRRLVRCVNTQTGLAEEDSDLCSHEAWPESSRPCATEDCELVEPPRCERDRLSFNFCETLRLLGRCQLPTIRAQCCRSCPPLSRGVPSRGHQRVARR
The assay can be described thus: TMT10 TAILS N-terminomics, SMC1 experiment (Ad-mADAMTS7 WT vs EQ vs Luc, technical replicates, trypsin digest). The following applies: TAILS neo-N-terminal peptide abundance; log fold change, Ad-mADAMTS7 WT over Luc. It counts as cell-based. Put shortly: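 Full-length mouse ADAMTS7 (WT or E373Q mutant, C-terminal 3xFLAG) or luciferase was transduced via adenovirus, 50 MOI, into HCA-SMC (SMC1, SMC2) or HUVEC. SMC1: pooled media, technical triplicates 400 ug; SMC2: process triplicates 300 ug; HUVEC: process triplicates 200 ug, bFGF2 10 ng/ml.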
Consider “CDC37_43 (FQKEKEELDR; listed as Homo sapiens)”, for which the logFC.mWT.over.Lux turned out to be 1.75.

For “CDH11_467 (HQEAKVPVAIR; listed as Homo sapiens)”, the logFC.mWT.over.Lux is 2.02. As for “CLEC11A_50 (HLQEALGLPAGR; listed as Homo sapiens)”, the figure is 1.08; as for “COL1A2_80 (QYDGKGVGLGPGPMGLMGPR; listed as Homo sapiens)”, 2.55; as for “COL1A2_91 (GPMGLMGPR; listed as Homo sapiens)”, 1.09. Under “COL1A2_113 (FQGPAGEPGEPGQTGPAGAR; listed as Homo sapiens)” stands 1.66. As for “COL1A2_270 (VGNAGPAGPAGPR; listed as Homo sapiens)”, the figure is 3.51; as for “COL1A2_305 (LTGAKGAAGLPGVAGAPGLPGPR; listed as Homo sapiens)”, 1.46; as for “COL1A2_389 (SAGPPGPPGLR; listed as Homo sapiens)”, 1.12. The substance “COL1A2_425 (ASGPAGVR; listed as Homo sapiens)” registered a logFC.mWT.over.Lux of 1.17. As for “COL1A2_630 (VGTAGPSGPSGLPGER; listed as Homo sapiens)”, the figure is 1.18. Under “COL1A2_681 (VGAPGPAGATGDR; listed as Homo sapiens)” stands 1.27; under “COL1A2_731 (AAGQPGAKGER; listed as Homo sapiens)”, 0.84.

Turning to “COL1A2_866 (LLGAPGILGLPGSR; listed as Homo sapiens)”, the logFC.mWT.over.Lux came to 3.48. Under “COL1A2_960 (AGAPGPHGPVGPAGKHGNR; listed as Homo sapiens)” stands 2.56. In the case of “COL1A2_1028 (LQGLPGIAGHHGDQGAPGSVGPAGPR; listed as Homo sapiens)”, the logFC.mWT.over.Lux was 1.51. As for “COL1A2_1037 (HHGDQGAPGSVGPAGPR; listed as Homo sapiens)”, the figure is 2.30; as for “COL1A2_1127 (SLRPKDYEVDATLKSLNNQIETLLTPEGSR; listed as Homo sapiens)”, 2.23; as for “COL4A2_71 (YNGPPGLQGFPGLQGR; listed as Homo sapiens)”, 1.77. As for “COL4A2_172 (YALPKEER; listed as Homo sapiens)”, the figure is 5.97. For “COL5A1_544 (SQAQAILQQAR; listed as Homo sapiens)”, the logFC.mWT.over.Lux is recorded as 0.87.

In the case of “COL8A1_90 (MKEIQPAPR; listed as Homo sapiens)”, the logFC.mWT.over.Lux came out at 1.10.

In turn, “COL18A1_1505 (LQPPVVQLHDSNPYPR; listed as Homo sapiens)” displayed a logFC.mWT.over.Lux of 1.41. In the case of “ECM1_43 (YAAPPSPPLSR; listed as Homo sapiens)”, the logFC.mWT.over.Lux was found to be 0.63. As for “LTBP2_1602 (EAGVHFR; listed as Homo sapiens)”, the figure is 1.63; as for “MAN2A1_51 (LQEKIDHLER; listed as Homo sapiens)”, 2.04; as for “MAP1B_1065 (LTTPTKQLGAQSPGR; listed as Homo sapiens)”, 1.11.

“MAP4_815 (AVASTGPSSR; listed as Homo sapiens)” had a logFC.mWT.over.Lux of 1.29. Under “MAP4_816 (VASTGPSSR; listed as Homo sapiens)” stands 1.44; under “MGAT4B_28 (LSGQKGDVVDVYQR; listed as Homo sapiens)”, 1.43; under “MMP1_24 (LETQEQDVDLVQKYLEKYYNLKN(deamidated)DGR; listed as Homo sapiens)”, 2.23.

For “NID2_291 (HSSVPLGR; listed as Homo sapiens)”, the logFC.mWT.over.Lux stood at 3.96. As for “NID2_374 (VGGPDLKGQVEPWDER; listed as Homo sapiens)”, the figure is 4.80. Under “NID2_467 (LEDNIGSNTEVFTYNAANKETCEHNHR; listed as Homo sapiens)” stands 2.58; under “NID2_951 (YAYPGAR; listed as Homo sapiens)”, 3.35; under “NUCB1_228 (LKEVWEELDGLDPNR; listed as Homo sapiens)”, 1.70. As for “NUCB1_317 (FLASTQR; listed as Homo sapiens)”, the figure is 4.76; as for “NUCB1_389 (LQQAVLHMEQR; listed as Homo sapiens)”, 2.25; as for “OS9_54 ([code q]SQSSDVVIVSSKYKQR; also: modified N-terminal Gln; listed as Homo sapiens)”, 2.67.

Substance “OS9_55 (SQSSDVVIVSSKYKQR; listed as Homo sapiens)” returned a logFC.mWT.over.Lux of 2.23.

In turn, “PAPPA_41 (AAGPATCATR; listed as Homo sapiens)” displayed a logFC.mWT.over.Lux of 3.83. “PDLIM4_104 (IDPEIQDGSPTTSR; listed as Homo sapiens)” came in with a logFC.mWT.over.Lux of 1.00. Under “POLR3G_88 (LFCSHWSHIPGFK; listed as Homo sapiens)” stands 1.51; under “POSTN_413 (FSDDTLSMDQR; listed as Homo sapiens)”, 2.29. Under “POSTN_754 (IITGPEIKYTR; listed as Homo sapiens)” stands 1.77; under “POSTN_790 (FIEGGDGHLFEDEEIKR; listed as Homo sapiens)”, 0.87.

With “POSTN_807 (LLQGDTPVR; listed as Homo sapiens)”, the logFC.mWT.over.Lux turned out to be 1.10.

On to “PPP1R18_295 (LSETLTR; listed as Homo sapiens)”, for which the logFC.mWT.over.Lux worked out at 3.60. As for “PSAP_171 (F[Met(O)]ANIPLLLYPQDGPR; listed as Homo sapiens)”, the figure is 1.13; as for “PXDN_1341 (SYQEDKPTKKTR; listed as Homo sapiens)”, 6.62. Under “PXDN_1393 (QKTITDLR; listed as Homo sapiens)” stands 4.88.
